Source: patent US20230346934A1

Target: PDL1 on DMS 273-PDL1 target cells (UniProt Q9NZQ7)
Assay: cell-based or functional assay

Sequence of UniProt Q9NZQ7 (Q9NZQ7 19-290 limits assumed): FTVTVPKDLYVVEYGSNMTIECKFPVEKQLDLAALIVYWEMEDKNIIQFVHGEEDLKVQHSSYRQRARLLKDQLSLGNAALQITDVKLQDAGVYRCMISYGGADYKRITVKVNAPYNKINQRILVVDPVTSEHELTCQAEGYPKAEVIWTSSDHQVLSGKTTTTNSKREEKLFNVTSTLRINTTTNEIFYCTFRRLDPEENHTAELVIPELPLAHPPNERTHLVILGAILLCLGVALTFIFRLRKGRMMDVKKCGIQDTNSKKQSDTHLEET

In the case of HA PD1.CD28 chimeric switch receptor, the cytokine secretion (IL-2, IFNγ; Meso Scale Discovery) is reported as > 10 fold.
WT PD1.CD28 chimeric switch receptor was tested, and the cytokine secretion (IL-2, IFNγ; Meso Scale Discovery) was > 10 fold.
